Measured values published in article PMC9769368 (2022).

T1: AAVGo.1 virus-like particles (goat adeno-associated virus capsid, without DNA genome) (goat adeno-associated virus AAVGo.1)
T1 chain 1: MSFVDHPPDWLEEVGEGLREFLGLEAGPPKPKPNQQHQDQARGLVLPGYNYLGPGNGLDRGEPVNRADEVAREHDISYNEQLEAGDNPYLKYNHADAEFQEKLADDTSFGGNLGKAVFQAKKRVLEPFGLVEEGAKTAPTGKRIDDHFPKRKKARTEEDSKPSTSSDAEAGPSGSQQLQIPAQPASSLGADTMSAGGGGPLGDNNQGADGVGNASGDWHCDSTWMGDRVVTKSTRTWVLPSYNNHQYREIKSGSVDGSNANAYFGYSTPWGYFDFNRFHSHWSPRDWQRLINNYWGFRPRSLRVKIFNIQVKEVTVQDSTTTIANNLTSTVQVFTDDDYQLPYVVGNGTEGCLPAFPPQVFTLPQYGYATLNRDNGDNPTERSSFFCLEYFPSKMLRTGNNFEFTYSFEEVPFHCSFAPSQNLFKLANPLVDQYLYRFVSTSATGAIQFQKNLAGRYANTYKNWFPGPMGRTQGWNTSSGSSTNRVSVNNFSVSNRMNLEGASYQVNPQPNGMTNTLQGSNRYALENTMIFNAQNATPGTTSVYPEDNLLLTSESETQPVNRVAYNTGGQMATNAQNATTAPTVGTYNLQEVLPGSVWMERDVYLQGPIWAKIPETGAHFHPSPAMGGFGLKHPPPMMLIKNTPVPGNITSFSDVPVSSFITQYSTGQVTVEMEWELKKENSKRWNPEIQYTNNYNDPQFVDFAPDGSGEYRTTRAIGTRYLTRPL
T1 chain 2: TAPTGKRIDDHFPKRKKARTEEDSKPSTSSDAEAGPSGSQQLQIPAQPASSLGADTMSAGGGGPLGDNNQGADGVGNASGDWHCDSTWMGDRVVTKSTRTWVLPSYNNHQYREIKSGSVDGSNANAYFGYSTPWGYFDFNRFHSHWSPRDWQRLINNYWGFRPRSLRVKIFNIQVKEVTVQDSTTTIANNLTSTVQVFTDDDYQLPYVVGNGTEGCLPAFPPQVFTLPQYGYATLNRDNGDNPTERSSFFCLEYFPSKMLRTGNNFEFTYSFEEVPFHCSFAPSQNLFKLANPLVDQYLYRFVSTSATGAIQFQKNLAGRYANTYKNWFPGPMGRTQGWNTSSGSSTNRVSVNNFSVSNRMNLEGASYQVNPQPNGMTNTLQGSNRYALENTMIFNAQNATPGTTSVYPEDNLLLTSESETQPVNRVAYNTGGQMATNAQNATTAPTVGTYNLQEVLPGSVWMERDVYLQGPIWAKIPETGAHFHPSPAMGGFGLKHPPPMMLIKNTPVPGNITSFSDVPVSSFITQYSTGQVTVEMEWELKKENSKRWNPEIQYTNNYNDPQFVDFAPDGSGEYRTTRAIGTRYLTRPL
T1 chain 3: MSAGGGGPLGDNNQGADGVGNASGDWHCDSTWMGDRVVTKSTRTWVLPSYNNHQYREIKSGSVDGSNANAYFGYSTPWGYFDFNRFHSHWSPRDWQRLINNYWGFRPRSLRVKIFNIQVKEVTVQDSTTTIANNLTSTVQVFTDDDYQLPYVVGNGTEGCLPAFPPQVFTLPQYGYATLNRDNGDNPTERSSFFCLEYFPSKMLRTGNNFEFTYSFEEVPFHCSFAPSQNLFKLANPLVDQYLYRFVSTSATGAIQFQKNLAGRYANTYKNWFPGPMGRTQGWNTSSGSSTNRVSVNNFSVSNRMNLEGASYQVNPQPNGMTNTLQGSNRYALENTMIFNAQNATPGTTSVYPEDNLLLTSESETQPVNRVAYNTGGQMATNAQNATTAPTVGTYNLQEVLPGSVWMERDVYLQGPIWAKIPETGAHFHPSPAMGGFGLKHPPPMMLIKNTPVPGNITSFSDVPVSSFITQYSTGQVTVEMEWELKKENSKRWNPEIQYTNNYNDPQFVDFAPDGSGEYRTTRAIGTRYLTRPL

B1: His6PKD12, fragment of human AAV receptor (AAVR) with PKD domains 1 and 2 (domain or fragment)
chain: MASHHHHHHVSAGESVQITLPKNEVQLNAYVLQEPPKGETYTYDWQLITHPRDYSGEMEGKHSQILKLSKLTPGLYEFKVIVEGQNAHGEGYVNVTVKPEPRKNRPPIAIVSPQFQEISLPTTSTVIDGSQSTDDDKIVQYHWEELKGPLREEKISEDTAILKLSKLVPGNYTFSLTVVDSDGATNSTTANLTVNKAVD
B2: His6PKD1, fragment of human AAV receptor (AAVR) with PKD domain 1 (domain or fragment)
chain: SAGESVQITLPKNEVQLNAYVLQEPPKGETYTYDWQLITHPRDYSGEMEGKHSQILKLSKLTPGLYEFKVIVEGQNAHGEGYVNVTVKPE

Columns and labels:
Test in all cases: ELISA
[1] = target: AAV2 virus-like particles (adeno-associated virus 2)
[2] = target: AAV5 virus-like particles (adeno-associated virus 5, UniProt Q9YIJ1 2-724)
[3] = target: T1, AAVGo.1 virus-like particles (goat …)

Binder | EC50 [1] [nM] | EC50 [2] [nM] | EC50 [3] [nM]
B1 | 340 | 280 | 120
B2 |  | 400 | 140
